Source: paper PMC10889368, “Mesenchymal Transglutaminase 2 Activates Epithelial ADAM17: Link to G-Protein-Coupled Receptor 56 (ADGRG1) Signalling” (International Journal of Molecular Sciences, 2024)
Changes are numbered by the printed parent chain.

B1: 1-382 N-GPR56-Fc fusion protein (Fc fusion, human, UniProt Q9Y653 26-382, looked up)
chain: RGHREDFRFCSQRNQTHRSSLHYKPTPDLRISIENSEEALTVHAPFPAAHPASRSFPDPRGLYHFCLYWNRHAGRLHLLYGKRDFLLSDKASSLLCFQHQEESLAQGPPLLATSVTSWWSPQNISLPSAASFTFSFHSPPHTAAHNASVDMCELKRDLQLLSQFLKHPQKASRRPSAAPASQQLQSLESKLTSVRFMGDMVSFEEDRINATVWKLQPTAGLQDLHIHSRQEEEQSEIMEYSVLLPRTLFQRTKGRSGEAEKRLLLVDFSSQALFQDKNSSQVLGEKVLGIVVQNTKVANLTEPVVLTFQHQLQPKNVTLQCVFWVEDPTLSSPGHWSSAGCETVRRETQTSCFCNHL
notes: signal peptide in the construct; Fc retains the cysteine residues for dimerization; The limits 1-382 are printed for the SPR; also called human N-GPR56; source: CHO cells, transfected; conditioned medium, purified on protein G-Sepharose, or conditioned medium used directly; not shown: Fc (human IgG1 heavy chain, amino acids 3-236), C-terminal, kept

Key:
[1] = molecular target: GPR56 (Mus musculus) (UniProt Q8K209); settings: cited from earlier work
[2] = molecular target: T1, C277S-TG2 (catalytically deficient TG2 C277S mutant) (human, UniProt P21980 1-687, C277S); assay: SPR; BIAcore T200, protein A sensor chip; 270-320 RU of 1-382 N-GPR56-Fc fusion protein, or conditioned medium containing it (1:10 in HBS), captured; C277S-TG2 (DTT treated) as analyte, 8 serial dilutions; 25 °C, HBS (10 mM Hepes pH 7.4, 0.15 M NaCl, 3 mM EDTA, 0.005% P20), 30 µL/min; with 20 mM Ca2+; equilibrium analysis; settings: both partners purified
T1 construct: transglutaminase 2 with C277S; the results call the analyte of the kinetic studies human TG2; Incubated with 10 mM DTT for 10 min and re-buffered into HBS before SPR; source: E. coli BL21(DE3pLysS), purified to homogeneity
T1 sequence (looked up): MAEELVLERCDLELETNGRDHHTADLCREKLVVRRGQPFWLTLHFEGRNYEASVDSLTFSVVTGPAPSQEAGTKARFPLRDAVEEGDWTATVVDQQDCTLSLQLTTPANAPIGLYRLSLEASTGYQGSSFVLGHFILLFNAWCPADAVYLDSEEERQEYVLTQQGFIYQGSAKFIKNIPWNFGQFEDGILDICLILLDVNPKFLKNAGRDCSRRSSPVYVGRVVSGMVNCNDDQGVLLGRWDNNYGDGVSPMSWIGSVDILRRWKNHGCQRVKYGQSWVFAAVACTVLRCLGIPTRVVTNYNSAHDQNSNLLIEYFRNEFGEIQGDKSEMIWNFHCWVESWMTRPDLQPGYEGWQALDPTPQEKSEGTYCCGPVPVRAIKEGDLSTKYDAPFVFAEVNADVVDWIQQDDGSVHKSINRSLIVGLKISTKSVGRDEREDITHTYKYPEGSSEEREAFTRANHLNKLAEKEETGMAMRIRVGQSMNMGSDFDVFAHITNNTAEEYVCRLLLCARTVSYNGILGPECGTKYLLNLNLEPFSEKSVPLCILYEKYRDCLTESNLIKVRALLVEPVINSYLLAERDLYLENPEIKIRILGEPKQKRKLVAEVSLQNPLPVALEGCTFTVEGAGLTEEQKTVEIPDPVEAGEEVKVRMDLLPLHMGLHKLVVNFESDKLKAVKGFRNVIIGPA

[3] = molecular target: T2, wild type murine TG2 (murine, UniProt P21981 1-686); assay: pull-down; N-GPR56-Fc fusion proteins from CHO conditioned medium held on protein G-Sepharose beads, washed (20 mM Tris/HCl, pH 7.4, 150 mM NaCl), incubated with TG2 (50 µg/mL) in 50 µL overnight at 4 °C; eluted with 0.1 M glycine/HCl pH 2.5; Western blot; settings: both partners purified
T2 construct: transglutaminase 2, mouse, wild type; construct not described
T2 sequence (looked up): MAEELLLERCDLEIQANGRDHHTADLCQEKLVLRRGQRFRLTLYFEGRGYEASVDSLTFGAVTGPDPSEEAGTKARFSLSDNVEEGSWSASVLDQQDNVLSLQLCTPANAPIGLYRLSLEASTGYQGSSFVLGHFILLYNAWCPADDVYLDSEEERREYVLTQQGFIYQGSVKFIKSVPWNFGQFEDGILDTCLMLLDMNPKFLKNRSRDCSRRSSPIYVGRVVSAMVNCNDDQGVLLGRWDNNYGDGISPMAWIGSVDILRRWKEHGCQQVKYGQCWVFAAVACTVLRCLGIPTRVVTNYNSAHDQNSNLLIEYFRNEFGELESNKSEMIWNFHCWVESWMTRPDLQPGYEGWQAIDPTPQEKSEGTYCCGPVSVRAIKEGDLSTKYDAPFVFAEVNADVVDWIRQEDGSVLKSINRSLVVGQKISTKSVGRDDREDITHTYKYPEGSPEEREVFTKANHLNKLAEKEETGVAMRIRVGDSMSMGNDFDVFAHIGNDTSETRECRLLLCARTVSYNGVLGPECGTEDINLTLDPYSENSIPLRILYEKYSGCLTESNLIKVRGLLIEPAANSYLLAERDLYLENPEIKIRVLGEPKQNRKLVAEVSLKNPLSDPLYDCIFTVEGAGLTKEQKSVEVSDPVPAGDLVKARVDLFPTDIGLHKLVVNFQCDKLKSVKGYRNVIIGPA

[4] = molecular target: T3, human C230-A TG2 mutant (oxidation resistant mutant of TG2) (human, UniProt P21980 1-687, C230A); assay: as above; settings: both partners purified
T3 construct: transglutaminase 2, human, with C230A; source: E. coli BL21(DE3pLysS), purified to homogeneity
T3 sequence (looked up): T1 sequence (looked up) with C230A, S277C

[5] = molecular target: T4, human recombinant transglutaminase 2 (TG2), wild type (human, UniProt P21980 1-687); assay: as above; settings: both partners purified
T4 construct: transglutaminase 2, human; also called native TG2; wild type TG2; source: E. coli BL21(DE3pLysS), purified to homogeneity
T4 sequence (looked up): T1 sequence (looked up) with S277C

Sequence of GPR56 (Mus musculus) (Q8K209 26-382): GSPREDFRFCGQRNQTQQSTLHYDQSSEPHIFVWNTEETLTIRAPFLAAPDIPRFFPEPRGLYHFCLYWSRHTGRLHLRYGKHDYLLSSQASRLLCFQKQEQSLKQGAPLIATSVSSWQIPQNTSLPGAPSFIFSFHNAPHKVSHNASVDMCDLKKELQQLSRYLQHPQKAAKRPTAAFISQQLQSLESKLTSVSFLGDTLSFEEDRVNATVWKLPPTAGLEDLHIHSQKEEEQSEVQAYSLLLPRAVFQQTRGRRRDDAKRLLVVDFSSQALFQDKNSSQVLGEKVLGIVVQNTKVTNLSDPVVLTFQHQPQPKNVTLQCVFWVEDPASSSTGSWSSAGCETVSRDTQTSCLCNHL

Molecule	Kd [1]	Kd [2]	binding result [3]	binding result [4]	binding result [5]
TG2 (from UniProt P21981)	330 nM	–	–	–	–
B1	–	~1200 nM	binds	binds	binds
